Measured values taken from US20150361183A1 (IMPERIAL INNOVATIONS, published 2015).

B1: Complement factor H (CFH) (other, UniProt P08603 19-1231, looked up)
chain: EDCNELPPRRNTEILTGSWSDQTYPEGTQAIYKCRPGYRSLGNVIMVCRKGEWVALNPLRKCQKRPCGHPGDTPFGTFTLTGGNVFEYGVKAVYTCNEGYQLLGEINYRECDTDGWTNDIPICEVVKCLPVTAPENGKIVSSAMEPDREYHFGQAVRFVCNSGYKIEGDEEMHCSDDGFWSKEKPKCVEISCKSPDVINGSPISQKIIYKENERFQYKCNMGYEYSERGDAVCTESGWRPLPSCEEKSCDNPYIPNGDYSPLRIKHRTGDEITYQCRNGFYPATRGNTAKCTSTGWIPAPRCTLKPCDYPDIKHGGLYHENMRRPYFPVAVGKYYSYYCDEHFETPSGSYWDHIHCTQDGWSPAVPCLRKCYFPYLENGYNQNYGRKFVQGKSIDVACHPGYALPKAQTTVTCMENGWSPTPRCIRVKTCSKSSIDIENGFISESQYTYALKEKAKYQCKLGYVTADGETSGSITCGKDGWSAQPTCIKSCDIPVFMNARTKNDFTWFKLNDTLDYECHDGYESNTGSTTGSIVCGYNGWSDLPICYERECELPKIDVHLVPDRKKDQYKVGEVLKFSCKPGFTIVGPNSVQCYHFGLSPDLPICKEQVQSCGPPPELLNGNVKEKTKEEYGHSEVVEYYCNPRFLMKGPNKIQCVDGEWTTLPVCIVEESTCGDIPELEHGWAQLSSPPYYYGDSVEFNCSESFTMIGHRSITCIHGVWTQLPQCVAIDKLKKCKSSNLIILEEHLKNKKEFDHNSNIRYRCRGKEGWIHTVCINGRWDPEVNCSMAQIQLCPPPPQIPNSHNMTTTLNYRDGEKVSVLCQENYLIQEGEEITCKDGRWQSIPLCVEKIPCSQPPQIEHGTINSSRSSQESYAHGTKLSYTCEGGFRISEENETTCYMGKWSSPPQCEGLPCKSPPEISHGVVAHMSDSYQYGEEVTYKCFEGFGIDGPAIAKCLGEKWSHPPSCIKTDCLSLPSFENAIPMGEKKDVYKAGEQVTYTCATYYKMDGASNVTCINSRWTGRPTCRDTSCVNPPTVQNAYIVSRQMSKYPSGERVRYQCRSPYEMFGDEEVMCLNGNWTEPPQCKDSTGKCGPPPPIDNGDITSFPLSVYAPASSVEYQCQNLYQLEGNKRITCRNGQWSEPPKCLHPCVISREIMENYNIALRWTAKQKLYSRTGESVEFVCKRGYRLSSRSHTLRTTCWDGKLEYPTCAKR
B2: CFHR5 (complement factor H-related protein 5), wild type (other)
chain: EGTLCDFPKIHHGFLYDEEDYNPFSQVPTGEVFYYSCEYNFVSPSKSFWTRITCTEEGWSPTPKCLRMCSFPFVKNGHSESSGLIHLEGDTVQIICNTGYSLQNNEKNISCVERGWSTPPICSFTKGECHVPILEANVDAQPKKESYKVGDVLKFSCRKNLIRVGSDSVQCYQFGWSPNFPTCKGQVRSCGPPPQLSNGEVKEIRKEEYGHNEVVEYDCNPNFIINGPKKIQCVDGEWTTLPTCVEQVKTCGYIPELEYGYVQPSVPPYQHGVSVEVNCRNEYAMIGNNMITCINGIWTELPMCVATHQLKRCKIAGVNIKTLLKLSGKEFNHNSRIRYRCSDIFRYRHSVCINGKWNPEVDCTEKREQFCPPPPQIPNAQNMTTTVNYQDGEKVAVLCKENYLLPEAKEIVCKDGRWQSLPRCVESTAYCGPPPSINNGDTTSFPLSVYPPGSTVTYRCQSFYKLQGSVTVTCRNKQWSEPPRCLDPCVVSEENMNKNNIQLKWRNDGKLYAKTGDAVEFQCKFPHKAMISSPPFRAICQEGKFEYPICE
notes: Recombinant full-length protein from HEK293 cells, a dimer by size exclusion; The same id is used for native serum CFHR5 in the heterodimer experiments; also called recombinant CFHR5; wild-type CFHR5
B3: CFHR234 (recombinant CFHR2 domains 3-4) (other)
chain: EKCGPPPPIDNGDITSFLLSVYAPGSSVEYQCQNLYQLEGNNQITCRNGQWSEPPKCLDPCVISQEIMEKYNIKLKWTNQQKLYSRTGDIVEFVCKSGYHPTKSHSFRAMCQNGKLVYPSCEEK
B4: CFHR2 (complement factor H-related protein 2), native in serum (other)
chain: EAMFCDFPKINHGILYDEEKYKPFSQVPTGEVFYYSCEYNFVSPSKSFWTRITCAEEGWSPTPKCLRLCFFPFVENGHSESSGQTHLEGDTVQIICNTGYRLQNNENNISCVERGWSTPPKCRSTISAEKCGPPPPIDNGDITSFLLSVYAPGSSVEYQCQNLYQLEGNNQITCRNGQWSEPPKCLDPCVISQEIMEKYNIKLKWTNQQKLYSRTGDIVEFVCKSGYHPTKSHSFRAMCQNGKLVYPSCEEK
notes: Native serum protein
B5: CFHR1345 (recombinant CFHR1 domains 3-5) (other)
chain: TSCVNPPTVQNAHILSRQMSKYPSGERVRYECRSPYEMFGDEEVMCLNGNWTEPPQCKDSTGKCGPPPPIDNGDITSFPLSVYAPASSVEYQCQNLYQLEGNKRITCRNGQWSEPPKCLHPCVISREIMENYNIALRWTAKQKLYLRTGESAEFVCKRGYRLSSRSHTLRTTCWDGKLEYPTCAKR
B6: CFHR1 (complement factor H-related protein 1), purified from serum (other)
chain: EATFCDFPKINHGILYDEEKYKPFSQVPTGEVFYYSCEYNFVSPSKSFWTRITCTEEGWSPTPKCLRLCFFPFVENGHSESSGQTHLEGDTVQIICNTGYRLQNNENNISCVERGWSTPPKCRSTDTSCVNPPTVQNAHILSRQMSKYPSGERVRYECRSPYEMFGDEEVMCLNGNWTEPPQCKDSTGKCGPPPPIDNGDITSFPLSVYAPASSVEYQCQNLYQLEGNKRITCRNGQWSEPPKCLHPCVISREIMENYNIALRWTAKQKLYLRTGESAEFVCKRGYRLSSRSHTLRTTCWDGKLEYPTCAKR

What was measured:
iC3b = target: T1, iC3b (UniProt P01024 23-667; P01024 749-1303; P01024 1321-1663); assay: SPR steady state, iC3b on chip; reference CFHR5
T1 construct: also called thioester-coupled iC3b
T1 sequence (P01024 23-667, chain 1 of 3): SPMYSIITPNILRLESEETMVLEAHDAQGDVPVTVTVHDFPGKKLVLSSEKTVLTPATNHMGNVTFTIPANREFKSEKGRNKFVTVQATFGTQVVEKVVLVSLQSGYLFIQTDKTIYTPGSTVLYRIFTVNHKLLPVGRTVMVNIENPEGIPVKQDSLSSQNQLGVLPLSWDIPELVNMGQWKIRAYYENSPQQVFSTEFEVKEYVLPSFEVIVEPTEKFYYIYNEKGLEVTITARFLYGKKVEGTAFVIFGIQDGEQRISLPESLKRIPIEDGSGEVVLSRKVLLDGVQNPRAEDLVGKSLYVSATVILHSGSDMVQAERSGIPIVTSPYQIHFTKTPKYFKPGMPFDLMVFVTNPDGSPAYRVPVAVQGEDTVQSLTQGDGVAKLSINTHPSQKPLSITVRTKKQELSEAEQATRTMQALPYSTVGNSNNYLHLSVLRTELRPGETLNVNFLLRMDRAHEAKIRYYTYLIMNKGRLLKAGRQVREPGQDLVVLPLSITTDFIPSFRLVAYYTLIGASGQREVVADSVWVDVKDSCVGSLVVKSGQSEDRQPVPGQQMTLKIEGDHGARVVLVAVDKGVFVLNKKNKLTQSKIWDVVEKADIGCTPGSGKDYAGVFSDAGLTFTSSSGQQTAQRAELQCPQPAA
T1 sequence (P01024 749-1303, chain 2 of 3): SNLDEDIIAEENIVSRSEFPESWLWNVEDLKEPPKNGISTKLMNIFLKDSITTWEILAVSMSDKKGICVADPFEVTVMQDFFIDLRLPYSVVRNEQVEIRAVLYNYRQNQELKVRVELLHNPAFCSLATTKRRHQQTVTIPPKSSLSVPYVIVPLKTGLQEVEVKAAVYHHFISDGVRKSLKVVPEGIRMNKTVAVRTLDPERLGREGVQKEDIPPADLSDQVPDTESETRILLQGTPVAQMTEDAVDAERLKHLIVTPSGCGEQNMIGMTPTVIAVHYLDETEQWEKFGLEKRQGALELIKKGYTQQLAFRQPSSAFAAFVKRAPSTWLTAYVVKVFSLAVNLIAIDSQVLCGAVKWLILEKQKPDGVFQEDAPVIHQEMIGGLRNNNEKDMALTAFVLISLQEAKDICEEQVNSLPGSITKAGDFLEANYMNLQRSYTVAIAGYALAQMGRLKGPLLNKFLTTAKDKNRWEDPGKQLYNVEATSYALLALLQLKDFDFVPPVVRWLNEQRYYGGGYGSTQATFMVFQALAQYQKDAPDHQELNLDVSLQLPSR
T1 sequence (P01024 1321-1663, chain 3 of 3): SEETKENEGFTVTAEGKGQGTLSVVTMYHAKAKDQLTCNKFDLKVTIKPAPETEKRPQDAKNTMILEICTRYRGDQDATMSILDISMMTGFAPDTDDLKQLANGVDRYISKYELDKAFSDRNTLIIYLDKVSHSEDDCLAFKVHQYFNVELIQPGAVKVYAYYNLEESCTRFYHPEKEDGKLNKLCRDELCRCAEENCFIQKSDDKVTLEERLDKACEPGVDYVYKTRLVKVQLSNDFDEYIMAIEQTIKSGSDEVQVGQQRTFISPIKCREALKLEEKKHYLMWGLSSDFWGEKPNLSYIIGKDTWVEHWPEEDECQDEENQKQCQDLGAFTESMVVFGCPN

C3b [1] = target: T2, C3b (UniProt P01024 749-1663; P01024 23-667); assay: SPR steady state, thioester-coupled (clustered) C3b against amine-coupled C3b
T2 construct: C3b is a two-chain fragment of C3; Used coated on ELISA wells, amine-coupled or thioester-coupled on SPR chips, or as the SPR analyte; also called complement C3b; amine-coupled C3b
T2 sequence (P01024 749-1663 limits assumed, chain 1 of 2): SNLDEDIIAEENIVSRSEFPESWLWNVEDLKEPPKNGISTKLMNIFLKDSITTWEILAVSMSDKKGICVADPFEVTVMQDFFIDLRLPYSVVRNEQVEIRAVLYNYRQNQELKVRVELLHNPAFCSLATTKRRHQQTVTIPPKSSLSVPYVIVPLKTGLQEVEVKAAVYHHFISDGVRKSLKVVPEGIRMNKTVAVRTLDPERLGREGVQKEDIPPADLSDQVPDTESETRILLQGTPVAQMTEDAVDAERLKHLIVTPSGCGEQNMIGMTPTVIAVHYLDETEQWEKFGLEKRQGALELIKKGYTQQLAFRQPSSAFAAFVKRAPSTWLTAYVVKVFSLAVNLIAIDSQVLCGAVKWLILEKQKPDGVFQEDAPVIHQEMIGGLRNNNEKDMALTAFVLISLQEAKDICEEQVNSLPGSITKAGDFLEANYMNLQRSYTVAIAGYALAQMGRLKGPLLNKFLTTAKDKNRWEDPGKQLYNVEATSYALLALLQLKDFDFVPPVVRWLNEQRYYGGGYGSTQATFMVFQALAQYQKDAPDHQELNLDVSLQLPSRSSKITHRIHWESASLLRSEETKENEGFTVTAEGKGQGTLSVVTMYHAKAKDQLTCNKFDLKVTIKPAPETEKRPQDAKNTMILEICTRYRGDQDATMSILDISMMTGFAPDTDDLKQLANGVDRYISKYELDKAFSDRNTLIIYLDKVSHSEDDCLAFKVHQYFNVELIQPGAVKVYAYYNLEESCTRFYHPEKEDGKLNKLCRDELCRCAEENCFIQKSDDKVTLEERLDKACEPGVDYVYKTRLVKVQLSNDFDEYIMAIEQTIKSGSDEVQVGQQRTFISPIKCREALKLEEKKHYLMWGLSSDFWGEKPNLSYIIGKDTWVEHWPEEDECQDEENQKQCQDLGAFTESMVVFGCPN
T2 sequence (P01024 23-667 limits assumed, chain 2 of 2): as the sequence (P01024 23-667, chain 1 of 3) above
Procedure: FIG. 9(a) Binding of CFHR5 and CFH to low levels of C3b coupled through amine groups (no clustering of C3b). CFH (from 4 μM) or CFHR5 (from 6.6 μM) were flowed across immobilized C3b (400 RU) at different concentrations. Affinity was calculated by steady state analysis. Analysis assumes a 1:1 binding interaction and for CFHR5 calculations used molarity of binding sites. FIG. 9(b) Binding to C3b coupled through the thiolester. C3b (150RU) was amine-coupled to a CM5 Biacore chip and used as a nidus for convertase formation. Further C3b was deposited on the chip surface by flowing fB and fD to form C3bBb followed by C3 as convertase substrate. […] CFH (from 4 μM) and CFHR5 (from 1.35 μM) were flowed across the surface and binding was analysed at steady state. Binding of CFH was very heterogeneous, likely due to crosslinking between multiple C3b-binding sites on fH and clusters of deposited C3b molecules. Affinity could not be calculated under these conditions. […] Data were calculated using the following values: CFH, mass 155 kDa, extinction coefficient 1.95 cm-1 (mg/mL)-1; CFHR5, mass 65 kDa, extinction coefficient 1.55 cm-1 (mg/mL)-1;
All data in FIGS. 9-11 were gathered using a Biacore T100 (GE Healthcare). […] For kinetic studies, samples were injected using the KINJECT command, in HBS/P (10 mM HEPES pH7.4, 150 mM NaCl, 0.05% surfactant-P20) flowed at 30 μl/min and analysed at 25° C. […]

[2] = target: the molecule itself; assay: size exclusion chromatography
From the text: FIG. 3(a) Generation of a CFHR5 protein lacking critical amino acids within the dimerisation motif. Monomeric CFHR5 (CFHR5^{dimer mutant}) was generated by mutating the three stabilizing amino acids (Tyr34Ser, Ser36 Tyr, Tyr39Glu) within the dimerisation motif to the corresponding amino acids within CFH. FIG. 3(b) Analysis of recombinant CFHR5 and CFHR5^{dimer mutant} using SDS PAGE gel electrophoresis. Both the wild type and dimer mutants were purified to single homogenous species as visualized by denaturing electrophoresis. FIG. 3(c) Analysis of recombinant CFHR5 and CFHR5^{dimer mutant} using size exclusion chromatography. Size exclusion chromatography was performed on a Superdex200 10/30 column (GE Healthcare) equilibrated in 50 mM Tris.HCl, pH 7.5, 150 mM NaCl at 0.4 ml/min. The column was followed in-line by an Optilab-Rex refractive index monitor (Wyatt Technologies). The CFHR5 dimer elutes early from the column (blue trace) whilst the monomeric CFHR5^{dimer mutant} protein elutes at a larger column volume (red trace). FIG. 3(d) Interaction of CFHR5 and CFHR5^{dimer mutant} with renal-bound mouse C3 in vivo.

C3b [3] = target: T2, C3b; assay: cell-based or functional assay
[4] = target: B6; assay: serum immunoprecipitation with anti-CFHR2, western blot with MBC125
From the text: Serum was immunoprecipitated using a specific anti-CFHR2 antibody (MBC22) and western blot analysis of the immunoprecipitated material with anti-CFHR1/2/5 antibody (MBC125) performed. […] Lane 2 and 4 represent control sera in which no anti-CFHR2 antibody was used. The detection of CFHR2-CFHR5 heterodimers was not possible due to non-specific bands in the CFHR5 region. […] Serum was immunoprecipitated using an anti-CFHR5 antibody and western blot analysis of the immunoprecipitated material with anti-CFHR1/2/5 antibody performed. […] Lane 2 and 4 represent control sera in which no anti-CFHR5 antibody was used. The detection of CFHR2-CFHR5 heterodimers was not possible due to non-specific bands in the CFHR2 region. FIG. 2(d) ELISA assay to detect CFHR2-CFHR5 heterodimers in vivo. Using an anti-CFHR5 capture antibody and an anti-CFHR2 detection antibody, positive signal was demonstrable in two individuals homozygous for the ΔCFHR3-1 deletion polymorphism. A much weaker signal was detectable in individuals without this deletion.
Detection of heterodimers CFHR1-CFHR2 and CFHR1-CFHR5 were identified by immunoprecipitation. […]

Binder | IC50, dose-dependent increase of lysis in the CFH-dependent alternative pathway haemolytic assay (guinea-pig erythrocytes, 20% normal human serum plus CFH) (C3b [3]) | other results
B1 | – | fold weaker binding than CFHR5 (iC3b): 10 fold
B2 | 0.15 µM | fold tighter binding to thioester-coupled C3b than to amine-coupled C3b (C3b [1]): 10 fold; binding result [2]: binds
B3 | 4.7 µM | –
B4 | – | binding result [4]: binds
B5 | 3.6 µM | –
B6 | 0.7 µM | –
